What was measured:
rat GC-A = molecular target: T1, rat GC-A (Rattus norvegicus, UniProt P18910); assay: Intracellular cGMP in GC-A transfected HEK293 cells; assay type: cell-based; details: 10 nM peptide, 15 min
T1 construct: expressed in transfected cells; host or cells: HEK293, transient, CMV-driven pBK plasmid (gift of Dr. A. De Léan)
T1 sequence (P18910 29-1057): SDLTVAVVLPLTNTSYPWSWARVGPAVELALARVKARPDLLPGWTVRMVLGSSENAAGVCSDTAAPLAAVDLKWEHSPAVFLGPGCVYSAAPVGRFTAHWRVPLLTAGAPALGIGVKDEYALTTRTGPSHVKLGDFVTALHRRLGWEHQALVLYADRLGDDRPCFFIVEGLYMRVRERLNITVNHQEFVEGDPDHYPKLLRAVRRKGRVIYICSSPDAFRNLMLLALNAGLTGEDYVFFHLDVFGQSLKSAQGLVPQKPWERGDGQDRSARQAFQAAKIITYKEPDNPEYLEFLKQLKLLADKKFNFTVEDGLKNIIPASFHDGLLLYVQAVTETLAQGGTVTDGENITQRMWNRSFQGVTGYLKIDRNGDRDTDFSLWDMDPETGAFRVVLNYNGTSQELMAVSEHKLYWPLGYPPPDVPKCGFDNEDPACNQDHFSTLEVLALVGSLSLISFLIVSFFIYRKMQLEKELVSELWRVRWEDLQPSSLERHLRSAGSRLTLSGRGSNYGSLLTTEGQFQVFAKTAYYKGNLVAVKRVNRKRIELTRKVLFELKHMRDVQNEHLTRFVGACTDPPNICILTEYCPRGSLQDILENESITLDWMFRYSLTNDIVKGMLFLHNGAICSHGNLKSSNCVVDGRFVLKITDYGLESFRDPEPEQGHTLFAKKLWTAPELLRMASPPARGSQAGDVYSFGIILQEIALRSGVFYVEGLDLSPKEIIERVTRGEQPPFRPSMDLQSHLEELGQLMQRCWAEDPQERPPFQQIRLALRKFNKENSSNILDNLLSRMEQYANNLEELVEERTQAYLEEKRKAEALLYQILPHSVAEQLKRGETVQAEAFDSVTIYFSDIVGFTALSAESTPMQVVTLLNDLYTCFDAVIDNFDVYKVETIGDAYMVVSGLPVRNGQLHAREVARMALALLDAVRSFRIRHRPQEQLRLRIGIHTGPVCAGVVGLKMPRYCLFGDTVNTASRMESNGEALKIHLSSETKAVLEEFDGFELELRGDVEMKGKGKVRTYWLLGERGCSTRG

human GC-B = molecular target: T2, human GC-B (Homo sapiens, UniProt P20594); assay: Intracellular cGMP in GC-B transfected HEK293 cells; assay type: cell-based; details: 10 nM peptide, 15 min
T2 construct: expressed in transfected cells; host or cells: HEK293, transient, pCDNA1.1 (CMV promoter)
T2 sequence (P20594 23-1047): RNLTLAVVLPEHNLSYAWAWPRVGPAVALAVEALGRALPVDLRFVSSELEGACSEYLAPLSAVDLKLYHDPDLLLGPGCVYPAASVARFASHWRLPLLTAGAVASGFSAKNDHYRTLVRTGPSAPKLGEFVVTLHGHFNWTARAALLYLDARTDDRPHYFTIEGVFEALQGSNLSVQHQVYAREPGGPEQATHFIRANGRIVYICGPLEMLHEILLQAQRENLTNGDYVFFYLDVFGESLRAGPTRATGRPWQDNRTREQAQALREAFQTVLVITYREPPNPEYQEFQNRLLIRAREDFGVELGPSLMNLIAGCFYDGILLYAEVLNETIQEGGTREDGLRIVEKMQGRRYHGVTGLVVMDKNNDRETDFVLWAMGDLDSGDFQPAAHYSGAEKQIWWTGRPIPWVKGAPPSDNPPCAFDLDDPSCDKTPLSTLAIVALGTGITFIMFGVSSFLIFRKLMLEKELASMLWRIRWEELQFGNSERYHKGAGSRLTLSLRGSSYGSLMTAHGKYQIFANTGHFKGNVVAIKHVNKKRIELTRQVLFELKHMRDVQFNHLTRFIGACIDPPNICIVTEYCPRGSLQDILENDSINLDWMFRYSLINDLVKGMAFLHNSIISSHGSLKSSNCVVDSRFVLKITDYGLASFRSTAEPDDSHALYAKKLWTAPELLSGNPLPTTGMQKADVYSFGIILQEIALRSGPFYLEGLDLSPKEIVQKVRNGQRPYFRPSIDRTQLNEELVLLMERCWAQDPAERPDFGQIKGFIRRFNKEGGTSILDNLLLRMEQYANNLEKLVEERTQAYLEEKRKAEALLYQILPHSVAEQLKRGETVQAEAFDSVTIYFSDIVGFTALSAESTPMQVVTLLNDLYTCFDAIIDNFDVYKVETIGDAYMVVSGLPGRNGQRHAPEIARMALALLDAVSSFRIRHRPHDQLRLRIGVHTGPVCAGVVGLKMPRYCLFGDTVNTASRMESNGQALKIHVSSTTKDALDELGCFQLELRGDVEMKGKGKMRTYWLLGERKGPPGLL

B1: rhOstn[27-133]: N-terminal 6 histidine-tagged recombinant human Ostn amino acids 27-133 produced in E.coli, SEQ ID NO: 57 (protein)
chain: SVDVTTTEAFDSGVIDVQSTPTVREEKSATDLTAKLLLLDELVSLENDVIETKKKRSFSGFGSPLDRLSAGSVDHKGKQRKVVDHPKRRFGIPMDRIGRNRLSNSRG
modifications: N-terminal His6 tag; recombinant mature osteocrin
- intracellular cGMP response via GC-A (rat GC-A): failed to activate
- intracellular cGMP response via GC-B (human GC-B): failed to activate
